The test system of series [1] is PC12 cells. In words: Alamar Blue cell-proliferation assay. In kind it is cell-based, rat. Particulars: cells on collagen; peptide 0.5-2.5 mM total; 72 hours. The procedure:
PC12 cells were exposed to different concentrations of hSAFAAA-W peptides (from 0.5 mM to 2.5 mM). Results are expressed as percentage of fluorescence from cells incubated with hSAFAAA-W versus no-peptide controls (100%). Mean+/−s.d. mean for n=3 experiments. […] Staurosporine was used to establish definite cell death.
Rat adrenal pheochromocytoma (PC12) cells and the subclone Neuroscreen-1 (NS-1) cells (ThermoFisher Scientific Cellomics) were used. Cells were maintained at 37° C., 5% CO2 in cell-culture medium comprising: Dulbecco's Modified Eagle Media (DMEM, Invitrogen) supplemented with 10% (v/v) horse serum (Sigma), 5% (v/v), fetal bovine serum (Sigma), 1% (v/v) penicillin/streptomycin solution (Sigma), and 2 mM L-glutamine (Invitrogen). […] The fluorescence (excitation, 560 nm; emission, 590 nm) of 100 μl samples was measured. The ratio of the fluorescence intensities to that for a no-peptide control wells was taken as a measure of cell proliferation. […] Cell morphology was followed up using Leica Microsystem Wetzlar GmbH (090-135.001) and images recorded using Canon PowerShot S70 7.1 megapixels. […]

Series [2] in a line: Particle-tracking microrheology (PTM) of gel strength versus temperature. It is filed as physicochemical. Particulars: as a function of temperature. As for the experimental part: Gel strength was probed using particle-tracking microrheology (PTM), in order to detect any difference between the behaviour of the material at the bulk and micro scales. PTM is a non-invasive technique for measuring local viscoelasticity in complex fluids (Cicuta & Donald, 2007). PTM directly observes the motion of embedded probe particles via optical microscopy. The mean square displacement (MSD) of the particles is calculated and related to the viscoelastic modulus of the sample using a Generalised Stokes-Einstein Relation (Mason, 2000; Hasnain & Donald, 2006). […] The spatial information for individual probe particles can be used to quantify the degree of heterogeneity in the system (Houghton et al., 2008).
Experiments were carried out using a Zeiss LSM 510 confocal microscope operated in bright-field mode with a 50× objective. […] Videos were captured in uncompressed avi format at 640×480 resolution and analysed using custom-written Matlab scripts. Viscoelastic moduli were calculated by taking Laplace Transform of the MSD and using GSER. […]
To confirm and quantify the gel strengths, the storage (G′) and loss (G″) moduli were recorded as a function of temperature using both microrheology (FIG. 3) and bulk oscillatory rheology, FIG. 4a. […]

The target in series [3] is T1, hSAFAAQ p2.
T1 construct: Second peptide of the control pair hSAFAAQ
T1 peptide: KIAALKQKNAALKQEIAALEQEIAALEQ
The experiment in a line: summary of microscopy of the mixed peptides.

Series [4] has as its target T2, hSAFAAA p2.
T2 construct: Second peptide of the hSAFAAA pair; also called peptide b)
T2 peptide: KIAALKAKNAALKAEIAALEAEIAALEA
The experiment in a line: complementary peptides mixed on ice at 1 mM each; vial inversion gel test. As for the experimental part: (§1) Complementary hSAF peptides were mixed on ice, and either allowed to assemble at this temperature for 30 minutes, or removed after 5 minutes and incubated for 25 minutes at 20° C. After these times, to test for gel formation, sample vials were inverted and incubated for a further 30 minutes without changing the temperature (FIG. 2). Through this simple test, hSAFAAA and hSAFQQQ both formed self-supporting gels. hSAFQQQ formed a gel at low temperature, which melted on warming; whereas, the hSAFAAA appeared to form a weak gel at low temperature that strengthened on warming.

The target in series [5] is T3, hSAFQQQ p2.
T3 construct: Second peptide of the hSAFQQQ pair; also called peptide f)
T3 peptide: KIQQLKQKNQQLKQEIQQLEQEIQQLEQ
Described as above. As for the experimental part:
as §1

As to `CN[C@@H]1C[C@H]2O[C@@](C)([C@@H]1OC)n1c3ccccc3c3c4c(c5c6ccccc6n2c5c31)C(=O)NC4` [staurosporine], the “cell proliferation / death versus no-peptide controls” value in series [1] is “died”.
Regarding “KIAALKAKNAALKAEIAALEAEIAALEA [hSAFAAA p2]”, the “gel state by PTM” value in series [2] is on record as “formed a weak gel detectable by PTM”.

B1: hSAFAAQ p1 (peptide)
peptide: KIAALKQKIAALKQEIAALEQENAALEQ
In the case of B1, the binding result in series [3] is “binds”.

B2: hSAFAAA p1 (peptide)
peptide: KIAALKAKIAALKAEIAALEAENAALEA
notes: First peptide of the hSAFAAA pair; many copies assemble with p2 into a staggered heterodimer coiled-coil fibril; also called peptide a)
For the molecule B2, the binding result in series [4] is listed as “binds”.

B3: hSAFQQQ p1 (peptide)
peptide: KIQQLKQKIQQLKQEIQQLEQENQQLEQ
notes: First peptide of the hSAFQQQ pair; also called peptide e)
Turning to B3, the binding result in series [5] is reported as “binds”.

(Values after patent US20110189284A1, “Peptide Fibres” (UNIVERSITY OF BRISTOL, priority 2009, published 2011).)
